# Experimental data taken from article PMC5423124.
# Biological target: Schistosoma japonicum glutathione-S-transferase with mPyTK at position 52 (GST-E52mPyTK) (Schistosoma japonicum) [GST: P08515]
# Assay: cross-linking
substance,measurement,value
Schistosoma japonicum glutathione-S-transferase with mPyTK at position 52 (GST-E52mPyTK) (from UniProt P08515 2-218) (enzyme),photo-cross-linking yield of the covalent dimer,53%
